Laboratory results from patent US20190233519A1.

Key:
CTLA-4-His protein = CTLA-4-His protein (UniProt P16410); assay: SPR, antibody captured by Fc, CTLA-4-His as analyte
[1] = target: biotin-labeled hCTLA-4/Fc protein (UniProt P16410); assay: FACS competition, biotin hCTLA-4-Fc on CHO cells expressing human B7-1
Chain of biotin-labeled hCTLA-4/Fc protein (P16410 37-161): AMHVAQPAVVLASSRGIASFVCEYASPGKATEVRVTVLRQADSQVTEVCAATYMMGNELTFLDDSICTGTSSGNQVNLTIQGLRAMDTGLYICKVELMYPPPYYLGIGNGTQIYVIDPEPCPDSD

Chain of CTLA-4-His protein (P16410 37-161 limits assumed): as the sequence (P16410 37-161) above

Q: Which results are given for ipilimumab (YERVOY®) (antibody)?
A: Kd (CTLA-4-His protein): 17.3 nM; IC50 [1]: 8.5 nM
